Source: publication PMC4908242, “Functional Characterization of a Small-Molecule Inhibitor of the DKK1-LRP6 Interaction” (ISRN Molecular Biology, 2012)

Tests used:
[1] = molecular target: T1, Full-length human LRP6-Fc tagged (R&D Systems) (human, UniProt O75581 20-1613); test: SPR; Biacore T100. LRP6-Fc (0.5 μg/mL) captured on Protein A that was amine-coupled to a CM3 chip; DKK1 3-54 nM injected; HBS-EP+ pH 7.4, 25°C; apparent KD; settings: both partners purified
[2] = molecular target: T1, Full-length human LRP6-Fc tagged (R&D …); test: SPR; Biacore T100. LRP6-Fc immobilised by amine coupling on a CM3 chip (3000 RU); DKK1 3-54 nM injected for 180 sec; HBS-EP+ pH 7.4, 25°C; apparent KD calculated as kd/ka; settings: both partners purified

T1 sequence (O75581 20-1613): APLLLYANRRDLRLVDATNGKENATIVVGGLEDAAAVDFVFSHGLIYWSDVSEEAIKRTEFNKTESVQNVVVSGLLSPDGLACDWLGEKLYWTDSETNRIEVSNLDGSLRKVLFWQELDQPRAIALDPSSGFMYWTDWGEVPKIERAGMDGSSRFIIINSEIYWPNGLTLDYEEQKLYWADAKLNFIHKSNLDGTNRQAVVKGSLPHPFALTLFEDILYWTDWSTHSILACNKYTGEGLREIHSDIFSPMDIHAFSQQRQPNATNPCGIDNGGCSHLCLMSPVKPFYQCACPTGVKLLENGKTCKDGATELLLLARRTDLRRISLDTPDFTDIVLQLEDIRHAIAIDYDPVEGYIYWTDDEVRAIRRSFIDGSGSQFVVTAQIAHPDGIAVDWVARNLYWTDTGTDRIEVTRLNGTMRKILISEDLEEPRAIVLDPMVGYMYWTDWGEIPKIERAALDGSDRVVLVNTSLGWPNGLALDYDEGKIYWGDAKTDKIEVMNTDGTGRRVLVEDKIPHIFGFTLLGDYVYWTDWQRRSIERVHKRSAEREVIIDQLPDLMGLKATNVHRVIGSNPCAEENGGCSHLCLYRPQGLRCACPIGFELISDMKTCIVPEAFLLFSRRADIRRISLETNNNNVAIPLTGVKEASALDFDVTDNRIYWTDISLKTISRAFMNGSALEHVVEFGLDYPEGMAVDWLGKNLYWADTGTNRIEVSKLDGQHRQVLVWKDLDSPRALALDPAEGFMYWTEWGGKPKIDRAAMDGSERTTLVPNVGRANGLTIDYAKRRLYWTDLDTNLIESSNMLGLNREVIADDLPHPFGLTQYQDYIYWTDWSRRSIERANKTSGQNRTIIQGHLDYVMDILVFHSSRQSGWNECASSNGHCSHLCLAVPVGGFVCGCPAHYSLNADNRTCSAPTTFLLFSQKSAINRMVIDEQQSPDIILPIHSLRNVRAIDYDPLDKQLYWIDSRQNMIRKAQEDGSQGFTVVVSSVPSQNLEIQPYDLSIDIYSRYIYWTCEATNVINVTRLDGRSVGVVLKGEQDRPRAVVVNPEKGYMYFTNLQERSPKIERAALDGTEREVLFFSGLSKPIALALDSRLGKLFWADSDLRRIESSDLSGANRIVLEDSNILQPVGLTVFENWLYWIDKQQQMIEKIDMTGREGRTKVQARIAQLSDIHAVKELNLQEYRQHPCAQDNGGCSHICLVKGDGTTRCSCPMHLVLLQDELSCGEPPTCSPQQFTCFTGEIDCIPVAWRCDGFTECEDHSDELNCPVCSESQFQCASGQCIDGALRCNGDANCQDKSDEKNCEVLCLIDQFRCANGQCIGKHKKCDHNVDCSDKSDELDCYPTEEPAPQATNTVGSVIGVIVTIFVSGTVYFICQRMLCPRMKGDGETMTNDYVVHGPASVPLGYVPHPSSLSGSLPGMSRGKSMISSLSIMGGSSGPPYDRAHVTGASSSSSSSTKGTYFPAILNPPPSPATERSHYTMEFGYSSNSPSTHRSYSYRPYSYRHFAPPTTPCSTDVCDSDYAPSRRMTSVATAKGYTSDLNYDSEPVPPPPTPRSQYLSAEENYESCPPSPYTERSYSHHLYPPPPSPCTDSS

Kd [1]: 840 pM
Kd [2]: 349 pM
koff [2]: 0.00183 s⁻¹
kon [2]: 5.26e+06 M⁻¹ s⁻¹
B1: Commercial purified recombinant human DKK1 (ligand, UniProt O94907 32-266, looked up)
chain: TLNSVLNSNAIKNLPPPLGGAAGHPGSAVSAAPGILYPGGNKYQTIDNYQPYPCAEDEECGTDEYCASPTRGGDAGVQICLACRKRRKRCMRHAMCCPGNYCKNGICVSSDQNHFRGEIEETITESFGNDHSTLDGYSRRTTLSSKMYHTKGQEGSVCLRSSDCASGLCCARHFWSKICKPVLKEGQVCTKHRRKGSHGLEIFQRCYCGEGLSCRIQKDHHQASNSSRLHTCQRH
notes: Dickkopf 1 (DKK1), human, commercial recombinant protein; Neither catalogue number nor construct limits are printed; also called Dickkopf 1; commercial recombinant DKK1; source: bought: R&D Systems, purified recombinant
